Data: publication PMC12329521
Read-outs that look alike come from different tables or passages of the source.

Key:
Experiment in all cases: SEC
[1] = molecular target: Rv2531c (apo) (Mycobacterium tuberculosis)
[2] = molecular target: Rv2531c (apo) (Mycobacterium tuberculosis); remark: listed apart in the source
[3] = molecular target: PLP-bound Rv2531c (Mycobacterium tuberculosis)

Row | Substance | stoichiometry N [1] | stoichiometry N [2] | stoichiometry N [3]
1 | Rv2531c (apo) (enzyme) | 4 | 4 | –
2 | PLP-bound Rv2531c (enzyme) | – | – | 2
